In patent publication US20130143822A1, “AGENTS FOR TREATING ALZHEIMER'S DISEASE” (priority 2010, published 2013):

What was measured:
[1] = target: Aβ1-42 oligomeric particles (Homo sapiens, UniProt P05067); test: Dynamic light scattering, hydrodynamic radius of Aβ1-42 particles; type: biochemical; conditions: 5 μM Aβ1-42 oligomeric particles, 50 μM L3, immediately and after 20 minutes, 25° C.
Method: Dynamic light scattering is used to determine the hydrodynamic radius of particles in solution or suspension. A 5 μM sample of Aβ1-42 oligomeric particles was diluted by adding a 50 μM L3 sample on the one hand, and buffer (50 mM sodium phosphate, 100 mM NaCl, pH 7.4) on the other hand. The hydrodynamic radius of the Aβ1-42 particles with and without L3 was measured using a DynaPro light scattering system, immediately after the sample was prepared and after 20 minutes. A 655.6 nm laser (13 mW/58% laser intensity) was used. The measuring time was 2 seconds, and the measurement temperature was 25° C. Spherical sedimented particles were assumed for calculating the hydrodynamic radius.

[2] = target: T1, Aβ (Homo sapiens, UniProt P05067); test: Thioflavin T test of Aβ aggregation; type: biochemical; conditions: 25 μM Aβ with 1 mM L3
T1 construct: joint stock solutions made of 25 μM Aβ (light bars) and 25 μM Aβ with 1 mM L3
T1 sequence (P05067 672-713 limits assumed): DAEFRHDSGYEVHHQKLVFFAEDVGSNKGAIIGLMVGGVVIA
Method: (§1) Both tests were prepared from joint stock solutions made of 25 μM Aβ (light bars) and 25 μM Aβ with 1 mM L3 (dark bars). In the ThT test, 5 μl of the solutions was mixed with 200 μl ThT solution (5 μM ThT; 50 mM glycerin pH 8.5) and measured at λex 440 nm and λem=490 nm in the fluorescence spectrometer. ThT is a dye which, when bound to regular fibrils, has higher fluorescence and therefore serves as a measure of the fibrillation. In the turbidimetric test, the clouding of the solution was measured in the UV/VIS spectrometer as a measure of the aggregation as absorption at 355 nm.

[3] = target: T1, Aβ; test: Turbidimetric test of Aβ aggregation (absorption at 355 nm); type: biochemical; conditions: 25 μM Aβ with 1 mM L3
Method: as §1

[4] = target: Aβ1-42 (Homo sapiens, UniProt P05067); test: Density gradient centrifugation (iodixanol gradient 5-50%) of Aβ-peptide mixtures, SDS-PAGE and silver staining; type: biochemical; conditions: 125 μM Aβ and 125 mM peptide
Chain of Aβ1-42 (P05067 672-713 limits assumed): as above
Method: L3 precipitates Aβ oligomers from complex mixtures of different Aβ forms. The size distributions of Aβ in solution and in Aβ-peptide mixtures were examined by way of sedimentation analysis on an iodixanol gradient (5-50%). The mixtures contained 125 μM Aβ and 125 mM peptide, respectively. After centrifugation, 14 fractions of 140 μl each were obtained from the surface by sequential pipetting and analyzed by means of denatured polyacrylamide gel electrophoresis SDS-PAGE and subsequent silver staining. […] Large aggregates form, which in subsequent experiments are described as amorphous, not fibrillary and not amyloidogenic.

[5] = target: Aβ1-42 oligomers (Homo sapiens, UniProt P05067); test: Surface plasmon resonance, Aβ1-42 monomers, oligomers and fibrils immobilized on a CM5 biosensor chip; type: binding
Chain of Aβ1-42 oligomers (P05067 672-713 limits assumed): as above
Method: L3 is shown in section A and D3 is shown in section B of the figure. […] Aβ1-42 monomers (dashed lines), oligomers (solid lines) and fibrils (dotted line) were immobilized on a CM5 biosensor chip. Interaction analyses were carried out by means of surface […]. RU: resonance units. In each case, 25 μl peptide solution (100 μg/ml) was injected. […] The same results are also obtained for Aβ1-40 oligomers.

[6] = target: T1, Aβ; test: Seeding test: amyloidogenic properties of Aβ-L3 aggregates by ThT fluorescence over time; type: biochemical; conditions: seeds 20% v/v added to freshly prepared Aβ, compared with Aβ without seeds
Method: Amyloidogenic seeds are particles which act as “nuclei” and expedite the aggregation process. With regard to the aggregation of Aβ, it is known that existing Aβ oligomers/seeds considerably expedite the aggregation process of monomers. For the experiment, seeds were produced which consisted of Aβ (triangles) and such, which consisted of Aβ and L3 (squares). After incubating Aβ and A-L3 mixtures for 5 days, the seeds were centrifuged off and washed. The seeds (20% v/v) were added to freshly prepared Aβ in the ThT test. Aβ without seeds (rhombi) were measured for control purposes. […] This is an indication that Aβ-D3 aggregates no longer have amyloid structures.

[7] = SPR, 25 μl peptide solution (100 μg/ml) injected

Chain of Aβ1-42 oligomeric particles (P05067 672-713 limits assumed): as above

With “L3: L3 peptide, which according to the invention binds to Aβ oligomers (LRMMLQIKRIPR)” the “formation of large Aβ aggregates (hydrodynamic radius)” value [1] was “favorable in terms of the fast formation of large Aβ aggregates”, the “ThT test result of the Aβ aggregates (fibrillary structure)” value [2] was “negative” and the “development of Aβ aggregates (clouding)” value [3] was “fast development of large Aβ aggregates”. The “content of Aβ oligomers after density gradient centrifugation” value [4] was “significantly reduce”, the “reduction of Aβ oligomer content compared with D3” value ([4]; at the analyzed time) was “to a greater degree than D3” and the “binding to Aβ1-42 oligomers” value [5, 7] was “very clear binding”. For the same substance, the “maximum resonance (RU) compared with D3” value [5, 7] was “higher maximum resonance than D3”, the “binding strength compared with D3” value ([5]; SPR, FIG. 1) was “stronger binding than D3” and the “binding to the Aβ peptide compared with peptide D3” value ([5]; general statement) was “better binding”. For the same substance, the “acceleration of Aβ aggregation by seeds composed of Aβ and L3” value [6] was “do not result in any accelerated aggregation”.
